Laboratory results as given in the supplement of paper PMC9170038.

Tested on: MS2 coat protein
Assay: apparent KD of MS2 coat protein; designed switch direction (-1 OFF switch, 1 ON switch): -1; higher = weaker reporter binding
How it was run: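 The apparent KD reported per design is the median over clusters of curve fits to normalised cluster fluorescence. The RNA switches were transcribed on Illumina chips by stalled E. coli RNA polymerase. SNAP-549-labelled MS2 coat protein was titrated from 0.7 or 1.5 nM, doubling up to 3 µM, in Tris-HCl pH 7.5 buffer containing KCl, MgCl2, BSA, DTT, tRNA and Tween-20, with no input, 200 uM small-molecule ligand, or an oligonucleotide input.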

[1] = Eterna round: R95, input ligand: microRNA oligo, concentration not stated
[2] = Eterna round: R95, input ligand: FMN 200 uM
[3] = Eterna round: R95, input ligand: none
[4] = input ligand: microRNA oligo, concentration not stated

Row | Sequence | apparent KD of MS2 coat protein [1] | apparent KD of MS2 coat protein (input ligand: FMN 200 uM) | apparent KD of MS2 coat protein (input ligand: none) | other results
1 | UUUUUGUGAGGAUAUCAGUAGUAAAAAAAUAAAAUUACUACUGAGAAGGCACAUGAGGAUCACCCAUGUUCCUU [salish99_ex4_r3_011] (puzzle: Exclusion 4) | 0.0145 µM |  |  | 
2 | AAAUUAGCAAGUAGGUCCGACAUGAGGAUCACCCAUGUUAGCUAAUCUAACGCUGCAUGAGAGUGCGCUCGUCUUAA [Sensor-V1 #20] (Eterna round: R97, puzzle: Sensor, turn-off variant 1) |  | 0.14 µM | 0.149 µM | 
3 | UUUAAUUUUUUUUUUUUACAAGCUUUUUGCUCGUCUUAUACAUGAGGAUCACCCAUGUGGGUGAGAAGUAAAUUAUC [JMF 48] (puzzle: Sensor v3, turn-off variant 2) | 0.0146 µM |  |  | apparent KD of MS2 coat protein [2]: 0.0637 µM; apparent KD of MS2 coat protein [3]: 0.224 µM
4 | CUGAUGUUAGGAUAUCAGGCGCCCGCCACUGGCAAAGCGCAUGAGAAGGGACAUGAGGAUCACCCAUGUAGUAA [Ussoisrebe] (puzzle: Exclusion 4) | 0.0277 µM |  |  | 
5 | GGUCCACAUGAGGAUCACCCAUGUAAUAACAUGCAGCGCAGGAAGGAUAUGCCCGAACAAAGCCAGCAGAAGGUCCAUUAACAU [Eternabot solution 7] (Eterna round: R96, puzzle: Exclusion NG 3) |  | 0.166 µM | 0.128 µM | apparent KD of MS2 coat protein [4]: 0.0845 µM
6 | CUCUUGUUAGGAUAUCAAACCGGCAGCGGAGCCGCCGGAAGUGAGAAGGGACAUGAGGAUCACCCAUGUAAGAA [Quatdior] (puzzle: Exclusion 4) | 0.0589 µM |  |  | 
7 | GUCAGCUCGUGAGGAUAUACAUGAUAGAUCGAUUAAUUAAUUAAUUUAACAUGAGGAUCACCCAUGUAGAAGGUACGAGCUGAU [ENG2/1-C2] (Eterna round: R96, puzzle: Exclusion NG 2) |  |  |  | apparent KD of MS2 coat protein [4]: 0.0401 µM
8 | AAAUAACAAGCAAGAUCCUACAUGAGGAUCACCCAUGUGCUCGUCUUAAUAAGUACUAUCACGAAAGUGAUAGUACA [Mat - Sensor v3 - turn-off var 1 - Eli Mod - D60] (puzzle: Sensor v3, turn-off variant 1) | 0.383 µM |  |  | apparent KD of MS2 coat protein [2]: 0.383 µM; apparent KD of MS2 coat protein [3]: 0.437 µM
9 | CCGGAAGUAGAGGAUAUCGUAUCGGAUACGAUACGAGAAGGCUAUACAUGAGGAUCACCCAUGUGUCCUACCGG [Fiskers Ex 6 - 5] (puzzle: Exclusion 6) | 0.0214 µM |  |  | 
10 | GACAAGGGAGGAUAUGCACAAGGGAUAUCUGACAUGCCGUUACAUGAGGAUCACCCAUGUAGAAGGCCCGAAUA [Didiin] (puzzle: Exclusion 2) | 0.0133 µM |  |  | 
11 | UGCAAGCUUUUAAGAUCCUACAUGAGGAUCACCCAUGUGCUCGUCUUAUAACGUACUGUGACGAAAGUCACGGUACG [JL TOV1 3.95] (Eterna round: R97, puzzle: Sensor, turn-off variant 1) |  | 0.105 µM | 0.114 µM | 
12 | GUUUUCAGACGGAGAUCCUACAUGAGGAUCACCCAUGUCUCUCUUGUUAAUUGCUCGUCUUUUCCUCCUCUGUUCUC [Elimod 34 - Jieux - Sensor, turn-off variant 1] (Eterna round: R97, puzzle: Sensor, turn-off variant 1) |  | 0.545 µM | 0.605 µM | 
13 | CAGGAUAGAGGAUAUACAUAGAUACAGAUUCAUGUGAUCCUACAUGAGGAUCACCCAUGUAGAAGGCUAUCCUG [Fiskers Ex 2 - 21] (Eterna round: R96, puzzle: Exclusion 2) |  | 0.216 µM | 0.348 µM | apparent KD of MS2 coat protein [4]: 0.321 µM
14 | UCCGGGUUUGUAGGAUAUAGUCUGCUUUGCAGACUAGAAGGACAUGAGGAUCACCCAUGUUGUGGAAAUUUGGGAUGUUCCUUU [random2] (Eterna round: R96, puzzle: Exclusion NG 1) |  | 0.176 µM | 0.189 µM | apparent KD of MS2 coat protein [4]: 0.0274 µM
